From article PMC9132248

Legend:
Settings in all cases: glycan lost; control: wild type APP-SNAP
[1] = live-cell confocal colocalisation with SiR-lysosome
[2] = Aβ42 ELISA of cell lysate (intracellular)
[3] = confocal, plasma-membrane share of total APP-SNAP intensity per cell
[4] = Aβ42 ELISA of culture medium (secreted)
[5] = confocal imaging, size of APP-SNAP-positive vesicles
[6] = confocal colocalisation with Golgi marker GRASP65
[7] = confocal, fraction of cells with plasma-membrane APP-SNAP
[8] = Airyscan colocalisation with early endosome marker EEA1

Substance	localisation_or_trafficking [1]	other: proteolytic processing [2]	localisation_or_trafficking [3]	other: proteolytic processing [4]	localisation_or_trafficking [5]	localisation_or_trafficking [6]	localisation_or_trafficking, other: percent of cells with APP-SNAP in plasma membrane [7]	localisation_or_trafficking [8]
amyloid precursor protein (hAPP695-SNAP): N467Q	decreases	increases	decreases	increases	decreases	no change	decreases, 11.8 vs 35.3	no change
amyloid precursor protein (hAPP695-SNAP): N496Q	decreases	increases	decreases	increases	decreases	no change	decreases, 9.8 vs 35.3	no change
